Experimental data from patent US20130039923A1 (Novo Nordisk, published 2013).
Numbering of substitutions follows the chain as printed. Ends that are not written are not given here.

Columns and labels:
[1] = target: T1, recombinant human interleukin-20 (human, UniProt Q9NYY1 25-176); test: cell-based or functional assay
T1 sequence: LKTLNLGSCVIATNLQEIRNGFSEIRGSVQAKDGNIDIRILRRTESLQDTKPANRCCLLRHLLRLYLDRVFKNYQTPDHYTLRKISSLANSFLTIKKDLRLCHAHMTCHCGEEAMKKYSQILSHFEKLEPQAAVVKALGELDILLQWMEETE

cynomolgus IL20 = target: T2, cynomolgus IL20 (cynomolgus monkey, UniProt Q9NYY1 25-176 (human entry)); test: cell-based or functional assay
T2 chain: T1 sequence with N54D, R55Q, P77L, S119G, K127E

murine IL20 = target: T3, murine IL20 (mouse, UniProt Q9JKV9 25-176); test: cell-based or functional assay
T3 sequence: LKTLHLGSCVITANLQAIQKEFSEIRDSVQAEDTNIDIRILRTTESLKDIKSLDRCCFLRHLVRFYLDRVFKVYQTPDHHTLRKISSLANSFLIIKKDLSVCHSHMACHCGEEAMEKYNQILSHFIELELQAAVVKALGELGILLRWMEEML

[2] = target: T4, hIL20 peptide 1 (residues 18-37 of SEQ ID NO: 1) (N-terminal biotin); test: SPR, biotinylated peptide on streptavidin chip (500 RU), antibody injected
T4 peptide: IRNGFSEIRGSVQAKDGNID

[3] = target: T5, hIL20 peptide 2 (residues 28-47 of SEQ ID NO: 1) (N-terminal biotin); test: as above
T5 peptide: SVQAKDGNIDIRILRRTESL

[4] = target: T6, hIL20 peptide 3 (residues 38-57 of SEQ ID NO. 1) (N-terminal biotin); test: as above
T6 peptide: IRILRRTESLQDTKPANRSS

[5] = target: T7, hIL20 peptide 4 (residues 48-67 of SEQ ID NO. 1) (N-terminal biotin); test: as above
T7 peptide: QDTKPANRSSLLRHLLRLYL

[6] = target: T8, hIL20 peptide 5 (residues 58-78 of SEQ ID NO: 1) (N-terminal biotin); test: as above
T8 peptide: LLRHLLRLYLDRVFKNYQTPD

[7] = target: T9, Peptide no. 44 (Figure 8A); test: Ala-scan peptide array of hIL20 74-96 on cellulose; fluorescein-labelled antibody; fluorescence as OD
T9 construct: Ala-scan peptide on the array; also called Peptide no; D78A
T9 peptide: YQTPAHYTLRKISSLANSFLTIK

[8] = target: T10, Peptide no. 45 (Figure 8A); test: as above
T10 construct: Ala-scan peptide on the array; also called Peptide no; H79A
T10 peptide: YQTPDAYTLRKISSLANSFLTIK

[9] = target: T11, Peptide no. 46 (Figure 8A); test: as above
T11 construct: Ala-scan peptide on the array; also called Peptide no; Y80A
T11 peptide: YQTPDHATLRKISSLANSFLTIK

[10] = target: T12, Peptide no. 59 (Figure 8A); test: as above
T12 construct: Ala-scan peptide on the array; also called Peptide no; T94A
T12 peptide: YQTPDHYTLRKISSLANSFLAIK

[11] = target: T13, Peptide no. 60 (Figure 8A); test: as above
T13 construct: Ala-scan peptide on the array; also called Peptide no; I95A
T13 peptide: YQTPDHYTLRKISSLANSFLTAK

[12] = target: T14, Peptide no. 2 (Figures 7A, 7B) (N-terminus acylated); test: array of terminally truncated, acylated hIL20 peptides on cellulose; fluorescein-labelled antibody; fluorescence as OD
T14 construct: peptide array on cellulose
T14 peptide: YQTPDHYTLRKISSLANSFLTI

[13] = target: T15, Peptide no. 6 (Figures 7A, 7B) (also: N-terminus acylated); test: as above
T15 construct: peptide array on cellulose
T15 peptide: YQTPDHYTLRKISSLANS

[14] = target: T16, Peptide no. 7 (Figures 7A, 7B) (also: N-terminus acylated); test: as above
T16 construct: peptide array on cellulose
T16 peptide: YQTPDHYTLRKISSLAN

[15] = target: T17, Peptide no. 13 (Figures 7A, 7B) (N-terminus acylated); test: as above
T17 construct: peptide array on cellulose
T17 peptide: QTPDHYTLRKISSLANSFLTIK

[16] = target: T18, Peptide no. 14 (Figures 7A, 7B) (N-terminus acylated); test: as above
T18 construct: peptide array on cellulose
T18 peptide: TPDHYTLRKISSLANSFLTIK

[17] = target: T19, Peptide no. 15 (Figures 7A, 7B) (N-terminus acylated); test: as above
T19 construct: peptide array on cellulose
T19 peptide: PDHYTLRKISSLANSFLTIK

[18] = target: T20, Peptide no. 16 (Figures 7A, 7B) (also: N-terminus acylated); test: as above
T20 construct: peptide array on cellulose
T20 peptide: DHYTLRKISSLANSFLTIK

[19] = target: T21, Peptide no. 17 (Figures 7A, 7B) (also: N-terminus acylated); test: as above
T21 construct: peptide array on cellulose
T21 peptide: HYTLRKISSLANSFLTIK

B1: human anti-hIL20 monoclonal antibody 15D2 (antibody, V domains shown)
VH: QVQLVQSGAEVKRPGASVKVSCKASGYTFTNDIIHWVRQAPGQRLEWMGWINAGYGNTQYSQNFQDRVSITRDTSASTAYMELISLRSEDTAVYYCAREPLWFGESSPHDYYGMDVWGQGTTVTVSS
VL: AIQLTQSPSSLSASVGDRVTITCRASQGISSALAWYQQKPGKAPKLLIYDASSLESGVPSRFSGSGSGTDFTLTISSLQPEDFATYYCQQFNSYPLTFGGGTKVEIKR
notes: also called 15D2-wt; 15D2 wild-type
For B1, the “efficacy (percentage inhibition) of IL20-induced proliferation of BaF-3(hIL20R)” value (“efficacy (percentage inhibition)” below) [1] was ~100%, the “efficacy (percentage inhibition)” value (cynomolgus IL20) was ~100% and the “efficacy (percentage inhibition)” value (murine IL20) was ~100%. B1: no binding (tested: 5 µg/ml) [2]; no binding (tested: 5 µg/ml) [3]; no binding (tested: 5 µg/ml) [4]. B1: no binding (tested: 5 µg/ml) [5]; no binding (tested: 5 µg/ml) [6].

B2: human anti-hIL20 monoclonal antibody 5B7 (antibody, human IgG4, V domains shown)
VH: B1 VH with T30S, N31S, D32H, I34M, Q59K, S69T, S106L
VL: B1 VL
notes: described as human IgG4; also called 5B7-wt
B2: binds [7]; binds [8]; binds [9]. B2: binds [10]; binds [11]; binds [12]. B2: binds [13]; binds [14]; binds [15]. B2: binds [16]; binds [17]; binds [18]. B2: binds [19].
